Consider six molecules from patent publication US20200138716A1, “COMPOSITIONS AND METHODS FOR INDUCING NANOPARTICLE-MEDIATED MICROVASCULAR EMBOLIZATION OF TUMORS” (Poseida Therapeutics, Inc., priority 2014, published 2020).

The nature of assay [1]: CuFL1A fluorescence NO sensor assay in solution. The format is biochemical. As to conditions: for CuFL1A fluorescence on addition of DEANO: DEANO added to the solution. The method, then: In various studies to test these potential mechanisms, PEM may be incubated with a NO probe. […] When non-emissive CuFL1A reacts with NO, Cu(II) is reduced to Cu(I), among other changes, to produce fluorescent FL1A-NO. In this manner, CuFL1A may be used as an NO sensor activated by fluorescence to assess the relative NO levels in solution. In various studies, cultured umbilical vein endothelial cells may be incubated with CuFL1A and either PEM or a control in order to assess changes in NO levels in the extracellular environment. In various studies, luminal chemiluminescence due to the presence of reactive oxygen species may be used to assess the biological consequences of PEM-bound NO promotion of neutrophil activation. The FL1A ligands may be dissolved in spectroscopic grade DMSO to achieve a final concentration of the stock solution of around […]. To determine the exact concentration, the stock solution may be diluted in pH 7 aqueous buffer and the absorbance of the bands at 504 and 499 nm may be measured with E=4.6×104 M-1 cm-1. The absorbance value and dilution factor may be recorded and the exact concentration of the ligand in the stock solution may be calculated. The DMSO stock solution of the metal-free ligand may be aliquoted in 50 μL portions and stored at -80° C. The aliquots may be thawed and the absorbance of the band at 504 or 499 nm may be checked before use. […] The copper complex may be prepared fresh, immediately before cell incubation, using one of the frozen aliquots of the ligand stock solution. […] The unused portion of the solution may be discarded by the end of the day. In an example study, half of the free MetMb and […] suspensions were incubated with sodium sulfate to reduce the myoglobin back to its oxyMb form. The free oxyMb and oxyPEM suspensions were then dialyzed for 4h to remove salt, and the rest of the original metMb and […] suspensions were used as received. […] A 2× concentrated stock solution of metMb (50 mg/mL in PBS) and oxyMb (50 mg/mL in PBS) was prepared. The final concentrations of empty polymersomes, […] and oxyPEM were determined by UV-Vis spectrometry and ICP-OES. The final volume in each well was 200 μL, and therefore 100 μL of each solution was added per well, thus diluting these original stock solutions by half. Fluorescence was measured various time points for each condition.

Assay [2] relates to human umbilical vein endothelial cells (HUVECs). Briefly: CuFL1A fluorescence, extracellular NO of cultured HUVECs. Type of assay: cell-based. As to conditions: for effect of further additions of DEANO on CuFL1A emission: DEANO added; for CuFL1A fluorescence compared to extracellular environment of HUVECs: no DEANO. As for the experimental part: Cells may be incubated with 1 μM or less, relative to total concentration, of the NO sensor in PBS buffer or a growth medium for imaging. Concentration may be adjusted to reduce the fluorescent signal intensity to desired levels. Imaging of extra-cellular NO may be performed directly in the growth medium for imaging, and images may be taken as often as needed following cell stimulation.
In another example study, pooled 4× passaged human umbilical vein endothelial cells (HUVECs) were grown in Corning Costar 96 well white plates with clear bottoms in EBM-2 media to 80-90% confluence. Half of the free metMb and metPEM suspensions were incubated with sodium sulfate to reduce the myoglobin back to oxyMb form. The free oxyMb and oxyPEM suspensions were then dialyzed for four hours to remove salt. The rest of the original metMb and metPEM suspensions were used as received.
A 4× concentrated FL1A stock solution (10 μM in PBS+gluc+ca+mg/DMSO), a 4× concentrated DEANO stock solution (200 μM in 10 mM NaOH), and a 4× concentrated LNNA stock solution (400 μM in PBS+glu+ca+mg) were prepared so that 50 μL of each was added per well to a final and consistent volume of 200 μL per well.
A 2× concentrated stock solution of metMb (50 mg/mL in PBS+gluc+ca+mg) and 2× concentrated oxyMb (50 mg/mL in PBS+gluc+ca+mg) solution were also prepared. […] Fluorescence readings were obtained from each well following a set 30-minute incubation period with each of the experimental groups.

For assay [3] the following is noted: background values; cited from earlier work.
Assay [4] is described as follows: Oxygen equilibrium binding curves (Hemox Analyzer, Hill model). As to conditions: 37° C.; partial pressure of O2 at 50% saturation. The method, then: Oxygen equilibrium binding curves of PEM and free Mb dispersions may be measured using a Hemox™ Analyzer at physiological temperature (37° C.). In brief, samples may be allowed to saturate to a pO2 of 147 mm Hg using compressed air and then deoxygenated using a compressed nitrogen stream. UV-Vis absorbance measurements of oxygenated and deoxygenated samples may be recorded as a function of pO2 via dual wavelength spectroscopy. Oxygen-PEM/myoglobin equilibrium curves may be fit to a four-parameter (A0, A∞, P50, n) Hill model:
in which A0 and A∞ represent the absorbance at 0 mm Hg and at full O2 saturation, respectively. The pO2 represents the partial pressure of O2, and P50 represents the partial pressure of O2 where PEM/Mb is 50% saturated with oxygen. Lastly, ‘n’ represents the cooperativity coefficient of PEM/Mb. […] The lower O2 affinity (higher P50) of PEM than free myoglobin may be attributed to the shielding effect of the polymersome membrane, which was further found to delay the kinetics of O2 binding to PEM.

The subject of the next assay is HUVECs. Briefly: Luminol chemiluminescence (reactive oxygen species) with HUVECs alone. Type of assay: cell-based, human. As to conditions: HUVECs without neutrophils, 30 minutes. As for the experimental part:
(§1) In another example study, similar to the previous study, pooled 4× passaged human umbilical vein endothelial cells (HUVECs) were grown in Corning Costar 96 well white plate with clear bottoms in EBM-2 media to 80-90% confluence. Half of the free metMb and […] suspensions were incubated with sodium sulfate to reduce the myoglobin back to oxyMb form. The free oxyMb and oxyPEM suspensions were then dialyzed for four hours to remove salt. The rest of the original metMb and […] suspensions were used as received. […] A 2× concentrated stock solution of metMb (50 mg/mL in PBS+gluc+ca+mg) and 2× concentrated stock of oxyMb (50 mg/mL in PBS+gluc+ca+mag) were prepared. The final concentrations of empty polymersome, […], and oxyPEM were determined by UV-Vis spectrometry and ICP-OES. […] Further, 600 μM of a luminol solution in media containing 18.75 μ/mL horseradish peroxidase (HRP) was prepared, with final concentrations in assay wells of around 120 μM luminol and 3.75 μ/mL HRP. […] A luminometor was used to continuously measure instantaneous reactive oxygen species generation after addition of each treatment administered to the HUVECs with and without neutrophils (total assay time 30 minutes). At the end of the study, sample supernatant were aliquoted and the cells were fixed and frozen for future myeloperoxidase assays or MPO ELISAs to look at degranulation.

The subject of assay [5] is human neutrophils incubated with HUVECs. In words: Luminol chemiluminescence, neutrophil activation on HUVECs. The format is cell-based. As to conditions: for generation of reactive oxygen species compared to luminol control: neutrophils with HUVECs, 30 minutes, maximal concentrations (25 mg/mL polymer or protein; metPEM 1.3 mg/mL metMb, 23.5 mg/mL polymer). As for the experimental part: as §1, with “received. Further, a ficoll-paque density gradient separation was used to purify fresh human neutrophils and re-suspend in media at a concentration of 6×10^6 neutrophils/mL. In the assay, […] aliquots were added per well, with a final volume of 200 μL per well, as in the study above.” for “received.”

[6] abbreviates: no DEANO, higher concentrations (e.g. 25 mg/mL metMb).

Like-named read-outs stand apart in the source and are kept apart here.

As to `CCN(CC)/[N+]([O-])=N/O.CCNCC` [DEANO, diethylamine NO, reference compound], the “CuFL1A fluorescence compared to its intensity in PBS” value in assay [1] (solution, no cells) is on record as “around seven-fold”. Moreover, the “increase in CuFL1A emission in extracellular environment of HUVECs” value in assay [2] (30-minute incubation) is recorded as approximately 1.5 fold.
For hemoglobin A: Normal adult hemoglobin A, the P50 in assay [3] is listed as 26.5 mmHg.
With “hemoglobin: oxygen-transporting protein in human red blood cells”, in assay [3], the P50 is recorded as 25-50 mmHg and the “affinity for oxygen / oxygen tension of release” value is 20 to 50 mmHg.

B1: free Mb: free (unencapsulated) myoglobin (protein, UniProt P68082 2-154, looked up)
Myoglobin: GLSDGEWQQVLNVWGKVEADIAGHGQEVLIRLFTGHPETLEKFDKFKHLKTEAEMKASEDLKKHGTVVLTALGGILKKKGHHEAELKPLAQSHATKHKIPIKYLEFISDAIIHVLHSKHPGDFGADAQGAMTKALELFRNDIAAKYKELGFQG
In turn, B1 gave a P50 in assay [4] of approximately 2 mm Hg. In assay [3], the P50 was 2.75 mmHg and the “affinity for oxygen / oxygen tension of release” value is 2 to 3 mmHg.

B2: metMb: metmyoglobin, free protein (protein, UniProt P68082 2-154, looked up)
Myoglobin: B1 Myoglobin
modifications: met (ferric) form
notes: metmyoglobin, free protein
Turning to B2, the “generation of reactive oxygen species (luminol chemiluminescence)” value with HUVECs was “do not, in and of themselves, result in the generation of reactive oxygen species”. In assay [1], the “CuFL1A fluorescence on addition of DEANO” value is recorded as “the degree of amplification in CuFL1A emission was lower”. In addition, the “CuFL1A fluorescence compared to its intensity in PBS” value in assay [1] (setting [6]) is listed as “dramatically reduced”. Further, in assay [5] (30 minute incubation), the “total oxidative burst (integrated luminol chemiluminescence), neutrophil activation” value is “did not have any effects”. In assay [5], the “generation of reactive oxygen species compared to luminol control” value was “no appreciable generation of reactive oxygen species”. In addition, in assay [2], the “effect of further additions of DEANO on CuFL1A emission” value is given as “only able to partially mitigate” and the “CuFL1A fluorescence compared to extracellular environment of HUVECs” value was “diminished”.

B3: oxyMb: oxygenated myoglobin, free protein (protein, UniProt P68082 2-154, looked up)
Myoglobin: B1 Myoglobin
modifications: oxygenated form
notes: oxygenated myoglobin, free protein
Consider B3, for which the “generation of reactive oxygen species (luminol chemiluminescence)” value in the assay on HUVECs was “do not, in and of themselves, result in the generation of reactive oxygen species”. In addition, the “CuFL1A fluorescence on addition of DEANO” value in assay [1] is recorded as “did not augment CuFL1A fluorescence”. The “CuFL1A fluorescence compared to its intensity in PBS” value in assay [1] (setting [6]) was “markedly decreased to baseline values”; in assay [1] (no DEANO, low concentrations (metMb up to 5 mg/mL)), “greater”. In assay [5] (DEANO added), the “effect of DEANO addition on neutrophil activation” value was “did not mitigate the levels of neutrophil activation”. Further, the “generation of reactive oxygen species compared to luminol control” value in assay [5] is reported as “statistically significant increase”. The “effect of further additions of DEANO on CuFL1A emission” value in assay [2] is given as “not able to mitigate”. In addition, the “CuFL1A fluorescence compared to extracellular environment of HUVECs” value in assay [2] was “diminished”.
